Values of other authors, collected in paper PMC9381557.

Molecular target: RAGE V domain (Homo sapiens) (UniProt Q15109)
Sequence of UniProt Q15109 (Q15109 23-116): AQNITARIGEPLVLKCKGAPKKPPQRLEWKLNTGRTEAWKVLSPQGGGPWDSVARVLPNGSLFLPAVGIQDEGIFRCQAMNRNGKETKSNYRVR

Kd: 6.8 µM
Substance: S100P (from UniProt P25815)
